Data set [1] deals with T1, E. coli (strain K12) RecA protein, wild type.
T1 chain: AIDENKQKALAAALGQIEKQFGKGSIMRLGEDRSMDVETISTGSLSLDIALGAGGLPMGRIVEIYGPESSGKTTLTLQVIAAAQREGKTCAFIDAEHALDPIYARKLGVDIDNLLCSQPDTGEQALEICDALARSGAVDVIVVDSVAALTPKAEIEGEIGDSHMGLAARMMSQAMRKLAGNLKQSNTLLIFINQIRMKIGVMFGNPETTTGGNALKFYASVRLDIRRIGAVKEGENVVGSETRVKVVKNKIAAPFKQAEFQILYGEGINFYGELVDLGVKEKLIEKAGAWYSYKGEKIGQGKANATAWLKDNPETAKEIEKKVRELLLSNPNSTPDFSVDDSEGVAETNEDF

B1: bacteriophage P1 Ref protein (wild type) (protein)
chain: MKTIEQKIEQCRKWQKAARERAIARQREKLADPVWRESQYQKMRDTLDRRIAKQKERPPASKTRKSAVKIKSRGLKGRTPTAEERRIANALGALPCIACYMHGVISNEVSLHHIAGRTAPGCHKKQLPLCRWHHQHAAPAEVREKYPWLVPVHADGVVGGKKEFTLLNKSEMELLADAYEMANIMH
As for B1, the “nuclease activity (degradation of M13mp18 circular ssDNA, agarose gel)” value in data set [1] is “the nuclease activity depended on both Ref and active RecA filaments”. In the data set with RecA E38K mutant protein, the “targeted cleavage of both strands of duplex DNA at RecA-created D-loops (restriction analysis, agarose gel)” value was “the Ref-induced breaks in the circular double stranded DNA occur where the RecA-bound oligonucleotide invaded the duplex DNA to form a D-loop”.

The values above are taken from patent publication US20120088276.
